Consider 40 sequences from the nanobody polyreactivity screen of Harvey et al. (2022).

The data set in a line: yeast display, Sf9 membrane polyspecificity reagent, FACS + sequencing; frameworks hold sequencing errors. An outline of the steps:
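Nanobodies came from a synthetic yeast display library in Saccharomyces cerevisiae BJ5465, induced with galactose for 36–48 hours and stained for 1 hour at 4 °C with 10% biotinylated, detergent-solubilized Sf9 membrane reagent. Cells were enriched on streptavidin microbeads and then FACS-sorted, with low and high (top ~1%) gates set on anti-HA fluorescence for expression and streptavidin fluorescence for reagent binding. Each polyreactivity label reflects the gate a clone came from. Genes were amplified by colony PCR, sequenced by MiSeq 2 × 250 and filtered by CDR length.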
As for “QVQLVESGGGLVQAGGSLRLSCAASGGIFHYYAMGWYRQAPGKERELVAAISWNTGSTYYADSVKGRFTISRDNAKNTVYLQINSLKPEDTAVYYCAASSRRSYLPEGQGEYWGQGTQVTVSS”, the “polyreactivity (PSR sort gate)” value is “high polyreactivity”.

Turning to “QVQLVESGGGLVQAGGSLRLSCAASGGIFIDYTMGWYRQAPGKERELVAAITRGGSTYYADSVKGRFTISRDNAKNTVYLQMNSLKPEDTAVYYCAARANTPVGHNRFGYWGQGTQVTVSS”, the “polyreactivity (PSR sort gate)” value is “low polyreactivity”.

As to “QVQLVESGGGLVQAGGSLRLSCAASGGIFIGYAMGWYRQAPGKERELVAAISYSGGSTYYADSVKGRFTISRDNAKNTVYLQMNSLKPEDTAVYYCAAQVDRKYRWFNSWGQGTQVTVSS”, the “polyreactivity (PSR sort gate)” value is on record as “high polyreactivity”.

On to “QVQLVESGGGLVQAGGSLRLSCAASGGIFIRYAMGWYRQAPGKEREFVAAIRWRGTNTYYADSVKGRFTISRDNAKNTVYLQMNSLKPEDTAVYYCAARPYYITRYKGMDYWGQGTQVTVSS”, for which the “polyreactivity (PSR sort gate)” value was “high polyreactivity”.

Take “QVQLVESGGGLVQAGGSLRLSCAASGGIFKAYAMGWYRQAPGKEREFFAAITSSGGRTSYADSVKGRFTISRDNAKNNVYLQKNSLKQEDTAVYYCAAYGDGIVNSWDSYSEMDYWGQGTQVTVSS”: the “polyreactivity (PSR sort gate)” value is on record as “low polyreactivity”.

Turning to “QVQLVESGGGLVQAGGSLRLSCAASGGIFKRNTMGWYRLAPGKERELVAAISRSGGSTYYADSVKGRFTISRDNAKNTVYLQMNSLKPEDTAVYYCARRFPYNYYVYGEDYWGQGTQVTVSS”, the “polyreactivity (PSR sort gate)” value was “high polyreactivity”.

“QVQLVESGGGLVQAGGSLRLSCAASGGIFKRNTMGWYRQAPGKERELVAGISWTGGRTYYADSVKGRFTISRDNAKNTVYLHMNSLKPEDTAVYYCAAKPLQGVRRVEYWGQGTQVTVSS”: the “polyreactivity (PSR sort gate)” value was “high polyreactivity”.

In the case of “QVQLVESGGGLVQAGGSLRLSCAASGGIFKVYGMRWYRQAPGKERELVAAISWTTGGTYYADSVKGRFTISRDNAKITVYLQMNSLKQEDTAVYYCAAEYADSWSAFDWNYYYWGQGTQVTVSS”, the “polyreactivity (PSR sort gate)” value is “high polyreactivity”.

For the sequence “QVQLVESGGGLVQAGGSLRLSCAASGGIFLVNDMGWYRPAPGKEWELVAAITSGGGTYYADSVKGRFTISRDNAKNTVYLQMNSLKPEDTAVYYCARDTYRQIVSNESYGYWGQGTQVTVSS”, the “polyreactivity (PSR sort gate)” value was “low polyreactivity”.

On to “QVQLVESGGGLVQAGGSLRLSCAASGGIFNINAMGWYRQAPGKERELVASIRGSGGRTYYADSVKGRFTISRDNAKNTVYLQMNSLKPEDTAVYYCNAESYSTWSFGHRYEYDYWGQGTQVTVSS”, for which the “polyreactivity (PSR sort gate)” value was “low polyreactivity”.

On to “QVQLVESGGGLVQAGGSLRLSCAASGGIFNRNAMGWYRQAPGKERELVAAISSGGGSTYYADSVKGRFTISRDNAKNTVYLQMNSLKPEDTAVYYCARDSYHLYIQPFGYWGQGTQVTVSS”, for which the “polyreactivity (PSR sort gate)” value was “low polyreactivity”.

As for “QVQLVESGGGLVQAGGSLRLSCAASGGIFPAYAMGWYRQAPGKERELVASISSSGGSTYYADSVKGRFTISRDNAKNTVYLQMNSLKPEDTAVYYCNVAQYLRARRPVDYWGQGTQVTVSS”, the “polyreactivity (PSR sort gate)” value was “high polyreactivity”.

Consider “QVQLVESGGGLVQAGGSLRLSCAASGGIFPGNAMGWYRPAPGKERELVATISYSGGSTYYADSVKGRFTISRDNAKNTVYLQMNSLKPEDTAVYYCAARGYKPTRSRRTEYGYWGQGTQVTVSS”, for which the “polyreactivity (PSR sort gate)” value is on record as “high polyreactivity”.

In the case of “QVQLVESGGGLVQAGGSLRLSCAASGGIFPLNAMGWYRQAPGKERELVAAISRRGGSTYYADSVKGRFTISRDNAKNTVYLQMNSLKPEDTAVYYCAAVTVRKFYKGINYWYEYWGQGTQVTVSS”, the “polyreactivity (PSR sort gate)” value is recorded as “high polyreactivity”.

On to “QVQLVESGGGLVQAGGSLRLSCAASGGIFPYYAMGWYRQAPGKERELVAGISQNDGRTYYADSVKGRFTISRDNAKNTVYLQMNSLKPEDTAVYYCATDYWYPRYGYWGQGTQVTVSS”, for which the “polyreactivity (PSR sort gate)” value is reported as “low polyreactivity”.

Regarding “QVQLVESGGGLVQAGGSLRLSCAASGGIFRGYAMGWYRQAPGKERELVAAITKRGGRTYYADSVKGRFTISRDNAKNTVYLQMNSLNPEDTAVFYCAADYYAAYHLPDLDYDYWGQGTQVTVSS”, the “polyreactivity (PSR sort gate)” value is on record as “high polyreactivity”.

As for “QVQLVESGGGLVQAGGSLRLSCAASGGIFRGYVMGWYRQAPGKERELVAAISYSGGNTYYADSVKGRFTISRDNAKNTVYLQMNSLKPEDTAVYYCDTVRSDFHSDDYWGQGTQVTVSS”, the “polyreactivity (PSR sort gate)” value is given as “low polyreactivity”.

As to “QVQLVESGGGLVQAGGSLRLSCAASGGIFRLYGMGWYRQAPGKERELVAAIRQSGGRTYYADSVKGRFTISRDNAKNTDYLQMNSLKPEDTAVYYCAADLLYRSSGTVRSDYSRYDYWGQGTQVTVSS”, the “polyreactivity (PSR sort gate)” value is listed as “low polyreactivity”.

As for “QVQLVESGGGLVQAGGSLRLSCAASGGIFRLYGMGWYRQAPGKERELVAAIRQSGGRTYYADSVKGRFTISRDNAKNTVYLQMNSLKPEDTAVYYCAADLLYRSSGTVRSDYSRYDYWGQGTQVTVSS”, the “polyreactivity (PSR sort gate)” value is “low polyreactivity”.

“QVQLVESGGGLVQAGGSLRLSCAASGGIFRNYAMGWYRQAPGKERELVARISSAGSTNYADSVKGRFTISRDNAKNTVYLQMNSLKPEDTAVYSCAAYPYVGYVSFSAYDYWGQGTQVTVSS”: the “polyreactivity (PSR sort gate)” value is “low polyreactivity”.

In the case of “QVQLVESGGGLVQAGGSLRLSCAASGGIFRSYTMGWYRQAPGKERELVAAISRSGGRTYYADSVKGRFTISRDNAKNTVYLQMNSLKPEDTAVYYCAAYVRSATLRVNYGYWGQGTQVTVSS”, the “polyreactivity (PSR sort gate)” value is listed as “high polyreactivity”.

For the sequence “QVQLVESGGGLVQAGGSLRLSCAASGGIFRWYTMGWYRPAPGKERELVAAITGSGGRTFYADSVKGRFTISRDNAKNTVYLQMNSLKPEDTAVYYCAKPQAQVGGYWGYDYWGQGTQVTVSS”, the “polyreactivity (PSR sort gate)” value is on record as “high polyreactivity”.

With “QVQLVESGGGLVQAGGSLRLSCAASGGIFRYYAMGWYRQAPGKERELVAAISKRGGSTYYADSVKGRFTISRDNAKNTVYLQMNSLKPEDTAVYYCAAEGYYGSSYGYWGQGTQVTVSS”, the “polyreactivity (PSR sort gate)” value is “high polyreactivity”.

With “QVQLVESGGGLVQAGGSLRLSCAASGGIFRYYAMGWYRQAPGKERELVAAISKSGGRTYYADSVKGRFTISRDNAKNTVYLQMNSLKPEDTAVYYCAADLYPFSRNTRYQFLYNYWGQGTQVTVSS”, the “polyreactivity (PSR sort gate)” value was “low polyreactivity”.

With “QVQLVESGGGLVQAGGSLRLSCAASGGIFRYYAMGWYRQAPGKERELVAAISSGGRTYYADSVKGRFTISRDNAKNTVYLQMNSLKPEDTAVYYCNADRYWGYDYWGQGTQVTVSS”, the “polyreactivity (PSR sort gate)” value was “high polyreactivity”.

Consider “QVQLVESGGGLVQAGGSLRLSCAASGGIFSAYAMGWSRQAPGKERELVAVINGSGSNTYYADSVKGRFTISRDNAKNTVYLQMNSLKPEDTAVYYCAARVYVSRSKRLNYWGQGTQVTVSS”, for which the “polyreactivity (PSR sort gate)” value is reported as “high polyreactivity”.

With “QVQLVESGGGLVQAGGSLRLSCAASGGIFSAYVMGWSRQAPGKERELVAAITRRGGSTYYADSVKGRFTISRDNAKNTVYLQMNSLKPEDTAVYYCAALLRGQDRTMDYWGQGTQVTVSS”, the “polyreactivity (PSR sort gate)” value is given as “high polyreactivity”.

Take “QVQLVESGGGLVQAGGSLRLSCAASGGIFSRYAMGWYRQAPGKEREFVAAISFSGASTYYADSVKGRFTISRDNAKNTVYLQMNSLKPEDTAVYYCAAYWDAEGRRYTRLDYWGQGTQVTVSS”: the “polyreactivity (PSR sort gate)” value is on record as “low polyreactivity”.

“QVQLVESGGGLVQAGGSLRLSCAASGGIFSSYAMGWYRPAPGKERELVAAIDSDGTTYYADSVKGRFTISRDNAKNTVYLQMNSLKPEDTAVYYCATGYPVRYRGYLNWSYYAYDYWGQGTQVTVSS”: the “polyreactivity (PSR sort gate)” value is on record as “low polyreactivity”.

In the case of “QVQLVESGGGLVQAGGSLRLSCAASGGIFSYNVMGWYRQAPGKERELVAAITRGGSTYYADSVKGRFTISRDNAKNTVYLQMNSLKPEDTAVYYCAAVRNYLWTGYDYWGQGTQVTVSS”, the “polyreactivity (PSR sort gate)” value is on record as “high polyreactivity”.

As for “QVQLVESGGGLVQAGGSLRLSCAASGGIFSYYAMGWYRQAPGKERELVAAITGSGATTYYADSVKGRFTISRDNAKNTVYLQMNSLKPEDTAVYYCAADYWTAFYTLDSWGQGTQVTVSS”, the “polyreactivity (PSR sort gate)” value is reported as “low polyreactivity”.

“QVQLVESGGGLVQAGGSLRLSCAASGGIFSYYVMGWYRQAPGKEREFVASITQRGRTYYADSVKGRFTISRDNAKNTVYLQINSLKPEDTAVYYCAAGIYAFRRHREEYDYWGQGTQVTVSS”: the “polyreactivity (PSR sort gate)” value was “high polyreactivity”.

“QVQLVESGGGLVQAGGSLRLSCAASGGIFTSNAMGWYRQAPGKERELVAAITKNGGRTYYADSVKGRFTISRDNAKNTVYLQMNSLKPEDTAVYYCNAAVTFRCYDYWGQGTQVTVSS”: the “polyreactivity (PSR sort gate)” value is listed as “high polyreactivity”.

Take “QVQLVESGGGLVQAGGSLRLSCAASGGIFVPNAMGWSRQAPGKARELVAAISYSGGRTYYADSVKGRFTISRDNAKNTVYLQMTSLKPEDTAVYYCAAEYWFVYHHYNYWGQGTQVTVSS”: the “polyreactivity (PSR sort gate)” value was “high polyreactivity”.

In the case of “QVQLVESGGGLVQAGGSLRLSCAASGGIFVVYGMGWYRQAPGKERELVAAISWRGGSTYYADSVKGRFTISRDNAKNTVYLQMNSLKPEDTAVSYCAADQYYGGYDYWGQGTQVTVSS”, the “polyreactivity (PSR sort gate)” value was “low polyreactivity”.

As to “QVQLVESGGGLVQAGGSLRLSCAASGGIFWRYAMGWYRQAPGKERELVAAISSRGGSTYYADSVKGRFTISRDNAKNTVYLQMNSLKPEDTAVYYCAAAFLSRVQGYDSWGQGTQVTVSS”, the “polyreactivity (PSR sort gate)” value is recorded as “high polyreactivity”.

For the sequence “QVQLVESGGGLVQAGGSLRLSCAASGGIFYHYTMGWYRQAPGKERELVASIRGSGGRTYYADSVKGRFTLSRDNAKNTVDLQMNSLKPEDTAVYYCNARGSWYQPTYDYWGQGTQVTVST”, the “polyreactivity (PSR sort gate)” value is given as “high polyreactivity”.

In the case of “QVQLVESGGGLVQAGGSLRLSCAASGGIFYLNAMGWYRQAPRKERELVAAITGTGGNTYYADSVKGRFTISRDNAKNTVYLQMNSLKPEDTAVYYCAAAAIGVGSGPFGIGWEEYYYWGLGTQVTVSS”, the “polyreactivity (PSR sort gate)” value is “low polyreactivity”.

“QVQLVESGGGLVQAGGSLRLSCAASGGIFYRNAMGWYRQAPGKERELVAAITQSGGRTYYADSVKGRFTISRDNAKNTVYLQMNSLKPEDTAVYYCAARSRKLYGHYRGAYDYWGQGTQVTVSS”: the “polyreactivity (PSR sort gate)” value was “high polyreactivity”.

Take “QVQLVESGGGLVQAGGSLRLSCAASGGIFYVNAMGWYRQAPGKERELVAAITSDGVSTYYADSVKGRFTISRDNAKNTVYLQMNSLKPEDTAVYYCAADNGGAGYYYGYVWYDYWGQGTQVTVSS”: the “polyreactivity (PSR sort gate)” value is recorded as “low polyreactivity”.
